The test system of data set [1] is GFP N-terminal phosphorylation mutant 1MRKGSCLF
To be noted: scale: relative to the endogenous site HKFSV of Aequorea GFP.

In data set [2] the test system is wild type Aequorea green fluorescent protein.
The subject of data set [3] is GFP N-terminal phosphorylation mutant 1MRRESLLF
The settings on record: scale: relative to the endogenous site HKFSV of Aequorea GFP.

Data set [4] relates to GFP N-terminal phosphorylation mutant 1MRRDSCLF
The settings on record: scale: relative to the endogenous site HKFSV of Aequorea GFP.

Data set [5] deals with GFP phosphorylation mutant 25RRFSV. The settings on record: scale: relative to the endogenous site HKFSV of Aequorea GFP.
In data set [6] the test system is GFP phosphorylation mutant 214KRDSM.
The test system of data set [7] is GFP phosphorylation mutant 172RRGSV. The settings on record: scale: relative to the endogenous site HKFSV of Aequorea GFP.
For data set [8], the system named is GFP phosphorylation mutant 155KRKSGI. To be noted: scale: relative to the endogenous site HKFSV of Aequorea GFP.
The subject of data set [9] is GFP N-terminal phosphorylation mutant 1MRKGSLLF
The settings on record: scale: relative to the endogenous site HKFSV of Aequorea GFP.

For data set [10], the system named is GFP phosphorylation mutant 68RRFSA. The settings on record: scale: relative to the endogenous site HKFSV of Aequorea GFP.
Data set [11] deals with GFP N-terminal phosphorylation mutant 1MSRRDSCF
The settings on record: scale: relative to the endogenous site HKFSV of Aequorea GFP.

Data set [12] relates to GFP N-terminal phosphorylation mutant 1MSKRRDSL
The settings on record: scale: relative to the endogenous site HKFSV of Aequorea GFP.

The mark [13] stands for this setting: scale: relative to the endogenous site HKFSV of Aequorea GFP.

For protein kinase A catalytic subunit, the Relative rates of phosphorylation in [1] worked out at 5.1; in [2] (setting [13]), 1; in data set [3], 3; in data set [4], 3.7; in [5], 1.75; in data set [6] (setting [13]), 1.88. Also, the Relative rates of phosphorylation in [7] was 1.57; in data set [8], 2.5; in [9] it was 1.6; in data set [10], 0.6; in data set [11] it was 2.1; in data set [12] it was 5.5. In [2], the phosphorylation in vitro result was “can be phosphorylated by protein kinase A in vitro with relatively slow kinetics”. In addition, in data set [6], the “kinetics of phosphorylation using gamma-32P-labeled ATP” value was “the site is poorly phosphorylated by protein kinase A”.

These data come from patent US20020061546.
